Molecular target: T1, Recombinant His-RAD51 fusion protein (UniProt Q06609 1-339)
T1 sequence: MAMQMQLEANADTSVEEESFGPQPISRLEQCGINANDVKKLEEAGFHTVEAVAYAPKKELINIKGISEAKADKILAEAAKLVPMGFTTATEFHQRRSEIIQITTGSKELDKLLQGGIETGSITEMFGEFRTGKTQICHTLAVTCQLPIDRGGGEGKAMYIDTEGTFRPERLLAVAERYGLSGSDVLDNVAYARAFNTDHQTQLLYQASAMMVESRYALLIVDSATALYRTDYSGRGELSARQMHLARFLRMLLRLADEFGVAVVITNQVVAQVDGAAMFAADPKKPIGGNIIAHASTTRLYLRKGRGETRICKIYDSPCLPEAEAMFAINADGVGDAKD
Experiment: SPR

FGGSFRTASNKEIKLSEHNIKKSKMFFKDIEEQYPT (domain or fragment) [Recombinant GST-BRC fusion protein (containing BRCA2-1005-1040, fused with GST at its N-terminal)]
binding result: binds

Source: paper PMC3598077 (EMBO Molecular Medicine, 2013)
